First the molecules themselves.
B1: Acetyl-CoA synthetase AcsA (Bacillus subtilis) (enzyme)
chain: MNLKALPAIEGDHNLKNYEETYRHFDWAEAEKHFSWHETGKLNAAYEAIDRHAESFRKNKVALYYKDAKRDEKYTFKEMKEESNRAGNVLRRYGNVEKGDRVFIFMPRSPELYFIMLGAIKIGAIAGPLFEAFMEGAVKDRLENSEAKVVVTTPELLERIPVDKLPHLQHVFVVGGEAESGTNIINYDEAAKQESTRLDIEWMDKKDGFLLHYTSGSTGTPKGVLHVHEAMIQQYQTGKWVLDLKEEDIYWCTADPGWVTGTVYGIFAPWLNGATNVIVGGRFSPESWYGTIEQLGVNVWYSAPTAFRMLMGAGDEMAAKYDLTSLRHVLSVGEPLNPEVIRWGHKVFNKRIHDTWWMTETGSQLICNYPCMDIKPGSMGKPIPGVEAAIVDNQGNELPPYRMGNLAIKKGWPSMMHTIWNNPEKYESYFMPGGWYVSGDSAYMDEEGYFWFQGRVDDVIMTSGERVGPFEVESKLVEHPAIAEAGVIGKPDPVRGEIIKAFIALREGFEPSDKLKEEIRLFVKQGLAAHAAPREIEFKDKLPKTRSGKIMRRVLKAWELNLPAGDLSTMED
notes: AcsA, acetyl-CoA synthetase of Bacillus subtilis; gene amplified from genomic DNA of strain 3610; catalytic lysine K549; the gene came from strain 3610; Monomer and dimer seen by mass photometry; also called Ac-CoA synthetase; source: E. coli BL21(DE3), purified (HisTrap, SEC)

One data set deals with T1, AcuA (Bacillus subtilis, UniProt P39065).
T1 construct: monomer 21 kDa by mass photometry
Description: isothermal titration calorimetry, one binding site model.

Data set [1] concerns the molecule itself. Description: mass photometry; TwoMP mass photometer, SEC buffer, 37.5 nM final protein concentration; proteins alone or 37.5 nM AcsA with 37.5 nM AcuA.
Substrate in the data set “purified protein”: CC(=O)O
The data set can be described thus: purified protein. Particulars: without AcuA; 1 mM CoA, ATP 2.5 mM or 2 mM, 0.1 mM DTT, room temperature.

For data set [2], the target named is T2, Acetyl-CoA synthetase AcsA (Bacillus subtilis) (Bacillus subtilis) (UniProt P39062).
T2 sequence: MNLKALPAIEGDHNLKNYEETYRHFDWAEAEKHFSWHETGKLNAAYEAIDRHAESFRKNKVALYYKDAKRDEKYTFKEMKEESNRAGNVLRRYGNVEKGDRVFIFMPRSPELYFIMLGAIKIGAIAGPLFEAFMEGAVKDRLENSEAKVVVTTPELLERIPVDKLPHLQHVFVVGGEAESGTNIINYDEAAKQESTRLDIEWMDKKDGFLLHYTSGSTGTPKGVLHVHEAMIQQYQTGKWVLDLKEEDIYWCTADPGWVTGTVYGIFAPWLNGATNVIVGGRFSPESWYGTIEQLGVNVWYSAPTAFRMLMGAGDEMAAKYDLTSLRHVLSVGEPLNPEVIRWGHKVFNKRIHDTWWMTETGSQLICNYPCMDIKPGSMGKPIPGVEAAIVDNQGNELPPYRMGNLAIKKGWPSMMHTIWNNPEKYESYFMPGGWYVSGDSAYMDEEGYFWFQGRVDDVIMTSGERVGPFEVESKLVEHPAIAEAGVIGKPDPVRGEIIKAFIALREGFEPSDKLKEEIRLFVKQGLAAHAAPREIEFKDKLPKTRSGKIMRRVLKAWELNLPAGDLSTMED

The target of data set [3] is B1. The data set can be described thus: cell-based or functional assay.
In data set [4] the target is B1. The data set can be described thus: pull-down; 200 μg GST-tagged protein immobilised on GST-Sepharose beads in spin columns, 200 μg partner added in SEC buffer (20 mM HEPES-Na pH 7.5, 200 mM NaCl, 20 mM KCl, 20 mM MgCl2), 30 min, three washes, elution with 20 mM GSH, Coomassie-stained SDS-PAGE; without Ac-CoA (also with 1 mM ATP, 1 mM AMP or 130 μM CoA, or with AcuB and AcuC added). The following applies: both partners purified.

The text below walks through data of paper PMC11910552, “Regulation of acetyl-CoA biosynthesis via an intertwined acetyl-CoA synthetase/acetyltransferase complex” (Nature Communications, 2025).

In the case of `CC(=O)SCCNC(=O)CCNC(=O)[C@H](O)C(C)(C)COP(=O)(O)OP(=O)(O)OC[C@H]1O[C@@H](n2cnc3c(N)ncnc32)[C@H](O)[C@@H]1OP(=O)(O)O` [Ac-CoA], the Kd – broadly, a measure of binding affinity in units of concentration – on AcuA was 9.47 ± 0.51 µM.

As for B1, in data set [1], the stoichiometry N (commonly the number of molecules, sites or subunits per partner or assembly) was 2. In the data set “purified protein”, the Km (as a rule, the substrate concentration at which the rate is half of its maximum) came out at 430 µM and the Vmax (in general, the top rate of the reaction or transport when substrate is in excess) is 2.17 µmol/min/mg.

B2: AcuA C-terminus peptide (201-…-210) (peptide)
peptide: RLRFYHRYMY
Molecule B2 displayed an AcsA activity (HPLC) with 0-1 mM AcuA C-terminus peptide; reduction of activity at 1 mM in data set [2] of 90%.

B3: GCN5-related N-acetyltransferase AcuA (Bacillus subtilis) (enzyme)
chain: MEHHKTYHSANIKTATGSLLIEGPVSPEDLAGYEFHKDLTAFRPPREQHEALVDIAGLPEGRIIIARDGRTIVGYVTYLYPDPLERWSEGNMEDLIELGAIEVAPDYRGCAVGKTLLTVSMMDEQMENYIVMTTEYYWHWDLKGMKKDVWEYRKIMEKMMNAGGLVWFATDEPEISSHPANCLMARIGKNVSQESIEQFDRLRFYHRYMY
On to B3, for which, in data set [3], the “Vmax of Ac-CoA production by AcsA (HPLC) at AcsA:AcuA ratios 1:0.5, 1:1, 1:2, 1:5: 1834 down to 390 nmol mg^−1 min^−1 (without AcuA 2167)” value stood at 1830 nmol/mg/min.

B4: GST-AcuA_E102Q (enzyme, Bacillus subtilis)
chain: MEHHKTYHSANIKTATGSLLIEGPVSPEDLAGYEFHKDLTAFRPPREQHEALVDIAGLPEGRIIIARDGRTIVGYVTYLYPDPLERWSEGNMEDLIELGAIQVAPDYRGCAVGKTLLTVSMMDEQMENYIVMTTEYYWHWDLKGMKKDVWEYRKIMEKMMNAGGLVWFATDEPEISSHPANCLMARIGKNVSQESIEQFDRLRFYHRYMY
notes: source: E. coli BL21(DE3), purified
In the case of B4, the binding result in data set [4] was “binds”.
